Laboratory results published in PMC5079754 (Biochimica et biophysica acta, 2016).

Experiments:
[1] = target: Tmod1s1 (res. 1–38 of Tmod1); test: CD thermal unfolding at 222 nm of Tpm1.1 model peptide complexes with Tmod1s1; type: binding, Gallus gallus
[2] = peptide alone, versus WT αTM1a1-21Zip
[3] = target: Lmod2s1 (N-terminal residues 2-41 of leiomodin-2) (human) (UniProt Q6P5Q4); test: NMR titration; conditions: scale: two-chained αTM1a_(1-14)Zip molecule per Lmod2s1
[4] = target: Lmod2s1 (N-terminal residues 2-41 of leiomodin-2) (human) (UniProt Q6P5Q4); test: circular dichroism, thermal unfolding
[5] = target: Tmod1s1 peptide (residues 1-38 of tropomodulin-1) (Gallus gallus); test: circular dichroism, thermal unfolding

UniProt Q6P5Q4, sequence (Q6P5Q4 2-41): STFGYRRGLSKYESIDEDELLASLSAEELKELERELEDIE

Substance	Kd [4]	Kd [5]	other results
H-GMDAIKKKMQMLKLDNENALDRNYHLENEVARLKKLVGER-OH [αTM1a1–21Zip[K15N]]	–	–	Kd ([1]; read-out: Kd (30°C,µM), Tmod1s1, 30°C, Kd=exp(−ΔΔG/RT) from CD unfolding of the complex and of the Tpm1.1 peptide alone, 40 µM equimolar, 10 mM sodium phosphate pH 7.0, 100 mM NaCl, duplicates): 3.77 ± 0.01 µM; fold reduction of affinity of Tmod1s1 by the K15N mutation ([1]; versus WT αTM1a1-21Zip, P<0.001, One Way ANOVA): four-fold; decrease in the Tm caused by the K15N mutation [2]: ~ 6 °C
αTM1a_(1-14)Zip, model Tpm1.1 peptide (from UniProt P09493-1 1-14)	–	–	stoichiometry N [3]: 1
αTM1a_(1-21)Zip, model Tpm1.1 peptide (from UniProt P09493-1 1-21)	0.37 µM	1 µM	–
αTM1a_(1-21)Zip[K15N], model Tpm1.1 peptide with the dilated cardiomyopathy-associated mutation K15N (from UniProt P09493-1 1-21)	2.31 µM	3.77 µM	–
